Measured values: the supplement of paper PMC7877785
± gives the uncertainty stated by the source.

Assay: self-splicing fitness, log relative to wild type (ln ratio); higher = more splicing; Tetrahymena group I intron in knt gene, E. coli kanamycin selection, DiMSum; sequences stand for … in CUCUCU…GGAGGGAAAAGUUAUCAGGCAUGCACCUGGUAGCUAGUCUUUAAACCAAUAGAUUGCAUCGGUUUAAAAGGCAAGACCGUCAAAUUGCGGGAAAGGGGUCAACAGCCGUUCAGUACCAAGUCUCAGGGGAAACUUUGAGAUGGCCUUGCAAAGGGUAUGGUAAUAAGCUGACGGACAUGGUCCUAACCACGCAGCCAAGUCCUAAGUCAACAGAUCUUCUGUUGAUAUGGAUGCAGUUCACAGACUAAAUGUCGGUCGGGGAAGAUGUAUUCUUCUCAUAAGAUAUAGUCGGACCUCUCCUUAAUGGGAGCUAGCGGAUGAAGUGAUGCAACACUGGAGCCGCUGGGAACUAAUUUGUAUGCGAAAGUAUAUUGAUUAGUUUUGGAGUACUCGUGGUCG
Method in brief: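 The eight P1ex-region nucleotides of an intron in the knt kanamycin-resistance gene on pET-22b(+) were all randomised and the library put into E. coli BL21(DE3). Six replicate transformations were grown overnight at 37°C or 30°C on LB agar with or without 25 μg/mL kanamycin, together with 100 μg/mL carbenicillin, 50 μM IPTG and 0.2% rhamnose. Colonies were pooled and amplicon-sequenced on an Illumina HiSeq 2500. Fitness from DiMSum is the error-weighted combination of wild-type-normalised replicate fold changes, kanamycin over none.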

Sequence	self-splicing fitness (ln) (30 °C)	self-splicing fitness (ln) (37 °C)
CUUUAGCAAUAUUACGAAUA	-3.48 ± 0.48	–
CUUUAGCAAUAUUACGAAUG	0.423 ± 0.14	-0.306 ± 0.17
CUUUAGCAAUAUUACGAGUA	-2.85 ± 0.22	-3.63 ± 0.42
CUUUAGCAAUAUUACGAUUU	-2.66 ± 0.18	-2.72 ± 0.3
CUUUAGCAAUAUUACGCCUG	-0.484 ± 0.11	-0.204 ± 0.14
CUUUAGCAAUAUUACGCCUU	-2.77 ± 0.31	-2.94 ± 0.43
CUUUAGCAAUAUUACGCGCA	-2.5 ± 0.31	-1.77 ± 0.42
CUUUAGCAAUAUUACGCGCG	-1.05 ± 0.14	-0.656 ± 0.17
CUUUAGCAAUAUUACGCUUU	-2.36 ± 0.36	-1.45 ± 0.41
CUUUAGCAAUAUUACGGAUC	-3.81 ± 0.35	-1.53 ± 0.18
CUUUAGCAAUAUUACGGCCA	–	-0.666 ± 0.5
CUUUAGCAAUAUUACGGUCC	–	-1.77 ± 0.32
CUUUAGCAAUAUUACGUGCG	-2.29 ± 0.14	-1.12 ± 0.12
CUUUAGCAAUAUUACGUGGC	–	-2.47 ± 0.44
CUUUAGCAAUAUUACGUUUC	–	-2.15 ± 0.23
GAAAAGCAAUAUUACGAGAA	-3.21 ± 0.48	-1.11 ± 0.23
GAAAAGCAAUAUUACGAUAC	-1.21 ± 0.25	-0.873 ± 0.22
GAAAAGCAAUAUUACGAUCC	-1 ± 0.11	-0.724 ± 0.15
GAAAAGCAAUAUUACGCAAA	-0.0354 ± 0.26	-1.79 ± 0.32
GAAAAGCAAUAUUACGCAAU	-2.28 ± 0.12	-1.41 ± 0.17
GAAAAGCAAUAUUACGCAGG	-2.07 ± 0.076	-1.85 ± 0.087
GAAAAGCAAUAUUACGCCAU	-2.84 ± 0.15	-1.57 ± 0.15
GAAAAGCAAUAUUACGCCGU	-1.75 ± 0.097	-0.396 ± 0.1
GAAAAGCAAUAUUACGCGCG	-0.276 ± 0.076	-0.478 ± 0.11
GAAAAGCAAUAUUACGCGCU	-0.913 ± 0.11	-0.301 ± 0.11

Sequence	self-splicing fitness (ln) (30 °C)	self-splicing fitness (ln) (37 °C)
GAAAAGCAAUAUUACGGAUC	-1.04 ± 0.072	-0.773 ± 0.087
GAAAAGCAAUAUUACGGCAC	-0.696 ± 0.058	-0.217 ± 0.093
GAAAAGCAAUAUUACGGGAG	-2.95 ± 0.097	-1.95 ± 0.086
GAAAAGCAAUAUUACGGGGA	-1.38 ± 0.16	-2.44 ± 0.23
GAAAAGCAAUAUUACGGGUA	-1.29 ± 0.1	-0.306 ± 0.095
GAAAAGCAAUAUUACGGUCA	-0.479 ± 0.067	0.0562 ± 0.073
GAAAAGCAAUAUUACGGUCG	-0.446 ± 0.065	-0.0366 ± 0.1
GAAAAGCAAUAUUACGUACC	-0.525 ± 0.092	-0.528 ± 0.14
GAAAAGCAAUAUUACGUCAA	-2.62 ± 0.19	-1.11 ± 0.14
GAAAAGCAAUAUUACGUCAG	-3.91 ± 0.33	-1.39 ± 0.19
GAAAAGCAAUAUUACGUCCG	-1.72 ± 0.12	-0.481 ± 0.14
GAAAAGCAAUAUUACGUUAA	-2.85 ± 0.15	-1.78 ± 0.13
GAAAAGCAAUAUUACGUUCG	-1.01 ± 0.064	-0.233 ± 0.08
GAACAGCAAUAUUACGAAGA	-1.13 ± 0.18	-0.694 ± 0.16
GAACAGCAAUAUUACGAAGC	-1.37 ± 0.1	-1.14 ± 0.13
GAACAGCAAUAUUACGAGAG	-3.49 ± 0.17	-1.83 ± 0.1
GAACAGCAAUAUUACGAGGA	-2.14 ± 0.11	-1.53 ± 0.14
GAACAGCAAUAUUACGAGUG	-1.78 ± 0.081	-1.31 ± 0.1
GAACAGCAAUAUUACGAUCC	-2.18 ± 0.17	-0.784 ± 0.24
GAACAGCAAUAUUACGCCAU	-3.82 ± 0.2	-2.14 ± 0.18
GAACAGCAAUAUUACGCGUC	-2.99 ± 0.12	-3.19 ± 0.16
GAACAGCAAUAUUACGGCAA	-0.669 ± 0.094	-0.372 ± 0.091
GAACAGCAAUAUUACGGGCU	-3.02 ± 0.15	-0.92 ± 0.11
GAACAGCAAUAUUACGGGGC	-3.05 ± 0.15	-3.3 ± 0.21
